Data as given in paper PMC4278681.

T1: N-HvGR-RBP1 (RRM domain) (Hordeum vulgare L., UniProt J7FTI7 1-92)
T1 sequence: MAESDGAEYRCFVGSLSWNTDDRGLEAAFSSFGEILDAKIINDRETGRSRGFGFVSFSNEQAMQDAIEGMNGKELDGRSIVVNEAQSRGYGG


Target: T1, N-HvGR-RBP1 (RRM domain)
Test: NMR

| Binder | binding result |
| --- | --- |
| TTCTGT (ssDNA) [TTCTGT 6-mer] | binds |
| TTCTGA (ssDNA) [TTCTGA 6-mer] | binds |
